Test results published in patent US20190248907A1 (published 2019).

What was measured:
[1] = target: bp.CS06xB10v5; assay: -; apparent KD
[2] = target: o.a. B10v5; assay: -; apparent KD

B1: hu c-Met (receptor)
chain: ECKEALAKSEMNVNMKYQLPNFTAETPIQNVILHEHHIFLGATNYIYVLNEEDLQKVAEYKTGPVLEHPDCFPCQDCSSKANLSGGVWKDNINMALVVDTYYDDQLISCGSVNRGTCQRHVFPHNHTADIQSEVHCIFSPQIEEPSQCPDCVVSALGAKVLSSVKDRFINFFVGNTINSSYFPDHPLHSISVRRLKETKDGFMFLTDQSYIDVLPEFRDSYPIKYVHAFESNNFIYFLTVQRETLDAQTFHTRIIRFCSINSGLHSYMEMPLECILTEKRKKRSTKKEVFNILQAAYVSKPGAQLARQIGASLNDDILFGVFAQSKPDSAEPMDRSAMCAFPIKYVNDFFNKIVNKNNVRCLQHFYGPNHEHCFNRTLLRNSSGCEARRDEYRTEFTTALQRVDLFMGQFSEVLLTSISTFIKGDLTIANLGTSEGRFMQVVVSRSGPSTPHVNFLLDSHPVSPEVIVEHTLNQNGYTLVITGKKITKIPLNGLGCRHFQSCSQCLSAPPFVQCGWCHDKCVRSEECLSGTWTQQICLPAIYKVFPNSAPLEGGTRLTICGWDFGFRRNNKFDLKKTRVLLGNESCTLTLSESTMNTLKCTVGPAMNKHFNMSIIISNGHGTTQYSTFSYVDPVITSISPKYGPMAGGTLLTLTGNYLNSGNSRHISIGGKTCTLKSVSNSILECYTPAQTISTEFAVKLKIDLANRETSIFSYREDPIVYEIHPTKSFISGGSTITGVGKNLNSVSVPRMVINVHEAGRNFTVACQHRSNSEIICCTTPSLQQLNLQLPLKTKAFFMLDGILSKYFDLIYVHNPVFKPFEKPVMISMGNENVLEIKGNDIDPEAVKGEVLKVGNKSCENIHLHSEAVLCTVPNDLLKLNSELNIEWKQAISSTVLGKVIVQPDQNFT
[1]
  Kd: 0.0196 nM
[2]
  Kd: 0.417 nM
